The values that follow come from US8247535B2, “Directed evolution of GRG31 EPSP synthase enzyme” (Athenix Corp., priority 2008, dated 2012).

Changes are numbered by the printed parent chain. In names and notes the source's numbering stands.

The subject of data set [1] is GRG36. The conditions noted are these: for fold higher thermostability at 37° C. than wild-type GRG36: relative to wild-type GRG36. On the procedure:
Following induction, each GRG36 protein variant was purified by affinity chromatography to a cobalt resin (Novagen). The purified proteins were tested for enzymatic activity following heating for 0, 4 and 6 hours at 37° C.

The subject of data set [2] is GRG36. Kind of data set: Kinetic constants of GRG36 enzymes (Km, Ki, Vmax). The format is biochemical. Particulars: for Km: substrate phosphoenolpyruvate; for Ki: glyphosate, (−)x-intercept of Kobs vs. glyphosate concentration. On the procedure: The syngrg36 DNA library was transformed into E. coli strain BL21*DE3 star (Invitrogen) for induction of protein expression. Following transformation, individual colonies were plated on 1×M63 medium containing 25 mM glyphosate to select for clones that had retained enzymatic activity and growth tolerance. Individual colonies were picked and arrayed into 384-well plates to create a mutagenized library for enzymatic activity screening. Two 384-well plates were created in this manner. Enzymatic activity screening was carried out as follows. Library clones were pinned into 96-well blocks containing LB medium and were grown to A600=0.6. IPTG was then added (0.5 mM) and the blocks were incubated overnight at 20° C. to induce protein expression. Next, protein extracts were prepared from individual cultures using POPCULTURE® reagent (Novagen) and the enzymatic activity was measured as disclosed in U.S. patent application Ser. No. 11/651,752, filed Jan. 10, 2007, herein incorporated by reference in its entirety. […] These 6 were selected for further characterization.
Additionally, enzymatic assays were carried out to calculate the kinetic constants for substrate binding affinity (Km), glyphosate binding (Ki) and enzymatic rate (Vmax). Briefly, each enzyme was titrated with the substrate phosphoenolpyruvate and the linear enzymatic rate was plotted versus the substrate concentration. This plot was fit to the Michaelis-Menton equation to calculate the substrate concentration that produced one-half of the maximal rate (Km), and the maximal rate obtained at saturating substrate was divided by the enzyme concentration to yield Vmax. Next, additional substrate titrations were carried out at various glyphosate concentrations, and the apparent binding constant at each glyphosate concentration (Kobs) was plotted against the glyphosate concentration to yield a straight line. The Ki was measured as (−)x-intercept.

For data set [3], the system named is GRG31 EPSP synthase. Kind of data set: Thermostability of extracts of GRG31 point mutants at 37° C. Particulars: for thermostability of extracts of error prone PCR clones: extracts of 95 clones, in words. The data set is classed as biochemical. On the procedure:
To improve the thermostability of GRG31, error prone PCR mutagenesis of GRG31 was performed. Forty-five thousand (45,000) clones were plated onto 50 mM glyphosate, and ninety-five (95) clones were picked.
To further investigate the contributions of various substitutions in these positions, several point mutations were generated at positions corresponding to amino acid positions 95, 206, and 215 of GRG31. Extracts of point mutants were tested for thermostability at 37° C.: […]

For data set [4], the target named is GRG31 EPSP synthase. Kind of data set: Kinetic analysis of GRG31 variants (Ki for glyphosate, Km for PEP, Vmax). Particulars: for Ki: Ki for glyphosate, calculated from plot of Km(app) vs. glyphosate concentration; for Km: Km for PEP; for Vmax: unit not given. The data set is classed as biochemical. Also noted: Vmax: unit not given here. On the procedure:
GRG31 variants L3P2b11, L3P2c11 and L4e11, and L5e3 were characterized by enzymatic assays as described herein, and compared to the native GRG31 enzyme. For each enzyme the apparent Km (Km(app)) was determined at each of several glyphosate concentrations, and a plot of Km(app) vs. glyphosate concentration was used to calculate the Ki for each enzyme. The thermostability for each enzyme was assessed by incubating the enzyme at 37° C. for 16 hours, and then quantifying the enzymatic activity remaining (as Vmax) vs. control enzyme that was incubated at 4° C.

In data set [5] the test system is GRG31 EPSP synthase. Description: Thermostability of purified GRG31 variant proteins (4 hrs at 37° C.). The format is biochemical. Particulars: in words. On the procedure: GRG31 variants L3P2b11, L3P2c11 and L4e11, and L5e3 were characterized by enzymatic assays as described herein, and compared to the native GRG31 enzyme. For each enzyme the apparent Km (Km(app)) was determined at each of several glyphosate concentrations, and a plot of Km(app) vs. glyphosate concentration was used to calculate the Ki for each enzyme. […]
Three variants (6b2, 6e7, and the triple EK (N95S A206V E215K; SEQ ID NO:20)) were grown, their proteins purified, and the thermostability of the proteins analyzed in more detail.

For the next data set, the system named is BL21*DE3 cells. Description: Glyphosate growth screen on agar plates. The data set is classed as cell-based, E. coli. The conditions noted are these: 1×M63 minimal medium; 0.05 mM IPTG; expression construct pAX1945. The source says: A glyphosate growth screen was developed. […] Library 1 was cloned into pAX1945 between the MfeI and AlwN1 restriction sites.
Clone pAX3625 contains a grg31 variant having an in-frame stop codon that disrupts the GRG31 open reading frame.

The subject of data set [6] is GRG31 EPSP synthase. The data set is classed as biochemical. On the procedure: The thermostability of several variants of GRG31 was analyzed by measuring survival of activity at 37° C.
Where [7] appears, read: extracts of point mutants, Table 8.
Setting [8] is: extracts, separate experiment, Table 9.

B1: GRG36(ace7): GRG36 protein variant, SEQ ID NO:27, encoded by syngrg36(ace7) (protein)
chain: MKNQNFDAKARSPWTPLKGVNKISVSPSKGRINGTVTIPGSKSLTNRALIISSLASGKSKVQGILKSDDSFWCLDSLKKLGVNVKIQGDIAFIEGNGGKWESGDLYIGAAGTIARFLPGALAVSGTGIWELEASKSMSKRPISPQVDALKELGAEITYLSDQGYYPLLVKGKQLNGGEVELSGRISSQFISGLLIASPYLNDPIKINIKDHIVQHSYVLLTLELMKKFGAKVKYDSSLKEIVVYPSKYTPQDINLEADVSTACYFLALAAVTNGKVQIDNLTYETKQPDIKMVDILERMGCKVTRGSSFIEIEGVSQLKGGFEISMREMSDQVLTLAAIAPFADEPITIKDVEHIRHHESNRISVLVDSLSRLGIIVEEFKDGLKVYPGNPKATLLDTHDDHRVAMALSLIGSRVEGIQINDPGCVSKTCPQYFELLEKLGLNIIKH
modifications: GRG36 variant (GRG36(ace7))
For orientation: Km means the substrate concentration at which the rate is half of its maximum. As for B1, in the data set on GRG36 [1], the “Half-life at 37° C.” value worked out at 18.8 h and the “fold higher thermostability at 37° C. than wild-type GRG36” value is listed as 7.5 fold. In the data set on GRG36 [2], the “Vmax” value is 1.8 nmol/min/µg and the Km is 9.8 µM. The “activity at 1 mM glyphosate compared with GRG36” value in the data set with GRG36 [2] (1 mM glyphosate) is given as “very similar activity”.

B2: GRG36(ace8): GRG36 protein variant, SEQ ID NO:28, encoded by syngrg36(ace8) (protein)
chain: B1 chain with I90T, Q145L, K350T, L410M
modifications: GRG36 variant (GRG36(ace8))
As to B2, in the data set on GRG36 [1], the “Half-life at 37° C.” value is 7.3 h and the “fold higher thermostability at 37° C. than wild-type GRG36” value was 2.5 fold. Moreover, in the data set on GRG36 [2], the “Vmax” value is 6.8 nmol/min/µg, the Ki was found to be 435 µM and the Km was 11 µM.

B3: GRG36: wild-type GRG36 EPSP synthase, SEQ ID NO:4 (protein)
chain: B1 chain with I90T, Q145L
modifications: derived from organism isolated from soil
On to B3, for which the “Half-life at 37° C.” value in the data set on GRG36 [1] was determined as 2.5 h. In the data set on GRG36 [2], the “Vmax” value is 8 nmol/min/µg, the Ki stood at 421 µM and the Km worked out at 6.3 µM.

B4: 6b2: GRG31 variant N95→S, A206→V, SEQ ID NO:18 (protein)
chain: MNQQVITLTHPSKKIQGTVQLTGSKSESNRALIIQSLSKGQVEIANLSEAADTVTLNRVLQIASDPKPGFNTIDIGPAGTAMRFLTAYLNLVKGSFILTGTERMQQRPIGILVDAMKEIGADIHYDKKVGYPPLKIEGGLFQEKDRVKIKGNISSQYISALLLIAPALKKGLTLEIEGELTSRPYVSMTLDMLKSVGIQHEWKNNVIKIAPQAFEKQTIYVEPDWSAASYWYAIAALADANASIVLPGLRKNSLQGDIAIISIMEHFGVQSSFESDGLHLNKKVIGSDVSLFNFKECPDLAQTVVVVAAALKRDVSFTGLETLKIKETDRIAALQKEIAKFGAELIEDGDTYHLKTAQVYQPEEVTFDTYEDHRMAMAFAPLALVFDQIKIAEPQVVEKSYPDFWNHLQAQAFVIE
modifications: GRG31 variant (clone 6b2)
B4: the “thermostability of extracts of error prone PCR clones” value with GRG31 EPSP synthase [3] was “increased thermostability”. For the same molecule, the “Percent of Wt GRG31 activity (4 hrs at 37° C.)” value (“Percent of Wt GRG31 activity” below) in the data set with GRG31 EPSP synthase [3] (setting [7]) worked out at 228%. For the same molecule, the “Percent of Wt GRG31 activity” value in the data set on GRG31 EPSP synthase [3] (setting [8]) stood at 139%. On GRG31 EPSP synthase [4], the Ki was 92 µM, the Km was 6.5 µM and the Vmax is 34. Moreover, the “improvement in Km for PEP relative to GRG31” value in the data set on GRG31 EPSP synthase [4] (relative to GRG31, in words) was “improved (lower)”. Besides, the “thermostability compared to wild-type GRG31” value in the data set on GRG31 EPSP synthase [5] is listed as “increased thermostability”.

B5: GRG31: native (wild-type) GRG31 EPSP synthase, SEQ ID NO:2 (protein)
chain: B4 chain with S95N, V206A
On to B5, for which the “glyphosate concentration of agar plates on which cells grow” value in the data set on BL21*DE3 cells is recorded as “up to 50 mM”. The “t1/2 at 37° C.” value with GRG31 EPSP synthase [6] was found to be 2.7 h. In addition, on GRG31 EPSP synthase [4], the Ki is 73 µM, the Km was determined as 23 µM and the Vmax was 29.3.

B6: Triple EK: GRG31 variant N95S A206V E215K, SEQ ID NO:20 (protein)
chain: B4 chain with E215K
modifications: GRG31 variant (triple EK)
As to B6, on GRG31 EPSP synthase [4], the Ki was 48.2 µM, the Km came to 7.2 µM and the Vmax worked out at 33. Besides, the “improvement in Km for PEP relative to GRG31” value in the data set with GRG31 EPSP synthase [4] (relative to GRG31, in words) was “improved (lower)”. Also, the “thermostability compared to wild-type GRG31” value with GRG31 EPSP synthase [5] was “increased thermostability”.

B7: 6e7: GRG31 variant E215→K, SEQ ID NO:19 (protein)
chain: B4 chain with S95N, V206A, E215K
modifications: GRG31 variant (clone 6e7)
Turning to B7, the “thermostability of extracts of error prone PCR clones” value in the data set with GRG31 EPSP synthase [3] was “increased thermostability”. The “Percent of Wt GRG31 activity” value with GRG31 EPSP synthase [3] (setting [7]) was found to be 213%. In the data set on GRG31 EPSP synthase [3] (setting [8]), the “Percent of Wt GRG31 activity” value is 152%. Besides, at GRG31 EPSP synthase [4], the Ki is 111 µM, the Km was 3.4 µM and the Vmax amounted to 62. In addition, the “Vmax improvement over GRG31” value with GRG31 EPSP synthase [4] (relative to GRG31) is 2 fold. Moreover, in the data set on GRG31 EPSP synthase [4] (relative to GRG31, in words), the “Vmax relative to GRG31” value was “improved” and the “improvement in Km for PEP relative to GRG31” value is “improved (lower)”. In addition, in the data set on GRG31 EPSP synthase [5], the “thermostability compared to wild-type GRG31” value was “increased thermostability”.
